Laboratory results taken from publication PMC6639331, “Reconstitution of recombinant human CCR4-NOT reveals molecular insights into regulated deadenylation”.

B1: 7-mer-A20 (ssRNA)
RNA: UCUAAAUAAAAAAAAAAAAAAAAAAAA
B2: 13+7-mer-A20 (ssRNA)
RNA: CACAUCCAACUUCUCUAAAUAAAAAAAAAAAAAAAAAAAA
B3: poly(U)30 (ssRNA)
RNA: UUUUUUUUUUUUUUUUUUUUUUUUUUUUUU

Key:
[1] = biological target: T1, CCR4-NOT FULL (CCR4a E240A:CAF1 D40A) (Homo sapiens, UniProt A5YKK6;Q9NZN8;O75175;Q92600;Q9ULM6;Q9UIV1;Q9H9A5;Q9UKZ1 …, E240A;D40A); assay: EMSA; 1 uM protein, 100 nM RNA; EMSA: 20 mM Tris/HCl pH 7.5, 10 mM NaCl, 2 mM MgCl2, 0.1% BSA, 0.1% Orange G, 3% Ficoll 400; 100 nM RNA; 10% native PAGE in TBE pH 8.3; temperature not stated; conditions: protein: recombinant; tags: NOT1 N-His10 and C-StrepII x2; other tags removed; copies: 1;1;1;1;1;1;1;1; label: 5' 6-FAM
[2] = biological target: T1, CCR4-NOT FULL (CCR4a E240A:CAF1 D40A); assay: EMSA; 1 uM protein, 100 nM RNA; preferred; EMSA: 20 mM Tris/HCl pH 7.5, 10 mM NaCl, 2 mM MgCl2, 0.1% BSA, 0.1% Orange G, 3% Ficoll 400; 100 nM RNA; 10% native PAGE in TBE pH 8.3; temperature not stated; conditions: protein: recombinant; tags: NOT1 N-His10 and C-StrepII x2; other tags removed; copies: 1;1;1;1;1;1;1;1; label: labeled

Binder	binding result [1]	binding result [2]
B1	binds	
B2	binds	
B3		binds
